Data on 4 substances can be found in IntAct's records for PubMed 21390248.

In assay [1] the target is 1433g_mouse Ywhag (UniProt P61982).
Assay [2] has the same target. This is another data set of the same source.

UniProt P61982, sequence (P61982 whole entry): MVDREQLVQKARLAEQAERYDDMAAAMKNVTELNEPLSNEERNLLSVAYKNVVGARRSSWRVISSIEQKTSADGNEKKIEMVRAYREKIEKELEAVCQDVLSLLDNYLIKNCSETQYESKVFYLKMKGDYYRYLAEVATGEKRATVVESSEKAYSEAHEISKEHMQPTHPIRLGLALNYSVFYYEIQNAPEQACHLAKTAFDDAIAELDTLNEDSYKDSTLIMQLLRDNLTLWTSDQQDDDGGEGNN

On to “Leucine-rich repeat serine/threonine-protein kinase 2 (Mus musculus), Q5S006 S935A”, for which the “effect of a mutation on the interaction” value in assay [1] is “decreasing interaction”.

In the case of “Leucine-rich repeat serine/threonine-protein kinase 2 (Mus musculus), Q5S006 G2019S”, in assay [1], the “effect of a mutation on the interaction” value is on record as “decreasing interaction”. With “Leucine-rich repeat serine/threonine-protein kinase 2 (Mus musculus), Q5S006 Y1699C”, the “effect of a mutation on the interaction” value in assay [2] is recorded as “decreasing interaction”.

For “Leucine-rich repeat serine/threonine-protein kinase 2 (Mus musculus), Q5S006 R1441G”, the “effect of a mutation on the interaction” value in assay [1] is on record as “decreasing interaction”.
